Consider one substance from publication PMC10068178.

The assay has as its target α-synuclein aggregates (small fibrils, oligomeric/protofibrillary species) formed in the aggregation reaction (UniProt P37840).

On to “human serum high-density lipoprotein (HDL) (complex)”, for which the diagnostic α-syn SAA on PD CSF, increase of the time to reach the fluorescence threshold of 5000 a.u. (TTT) against neat samples, HDL at 2X (~ 24%) and 5X the CSF physiological concentration was 55%.
